Test results taken from patent US20230203138A1 (TRUSTEES OF COLUMBIA UNIVERSITY IN THE CITY OF NEW YORK, published 2023).

Tests used:
[1] = biological target: SARS-CoV-2 receptor binding domain (RBD) (SARS-CoV-2, UniProt P0DTC2 319-591); assay: ELISA (FIG. 10)
SARS-CoV Spike trimer = SARS-CoV Spike trimer (SARS-CoV, UniProt P59594 14-1190); assay: SPR (FIG. 37D)

B1: monoclonal antibody 1-20 (antibody, V domains shown)
VH: EVQLVESGGGLIQPGGSLRLSCAASGLTVSSNYMSWVRQAPGKGLEWVSVIYSGGSTFYADSVKGRFTISRDNSKNTLYLQMNSLRAEDTAVYYCARDLFYYGMDVWGQGTTVTVSS
VL: DIQLTQSPSFLSASVGDRVTITCRASQGISSYLAWYQQKPGKAPKLLIYAASTLQSGVPSRFSGSGSGTEFTLTISSLQPEDFATYYCQQLNSYPCFGPGTKVDIK
- binding result [1]: binds

B2: monoclonal antibody 2-4 (antibody, V domains shown)
VH: QVQLVQSGAEVKKPGASVKVSCKASGYTFTGYYMHWVRQAPGQGLEWMGWINPNSGGTNYTQMFQGRVTMTRDTSISTAYMEVSRLRSDDTAVYYCARDRSWAVVYYYMDVWGKGTTVTVSS
VL: QSALTQPPSASGSPGQSVTISCTGTSSDVGGYNYVSWYQQHPGKAPKLMIYEVSKRPSGVPDRFSGSKSGNTASLTVSGLQAEDEADYYCSSYAGSNNLVFGGGTKLTVL
- binding result (SARS-CoV Spike trimer): no binding

B3: monoclonal antibody 2-30 (antibody, V domains shown)
VH: QVQLVESGGGVVQPGRSLRLSCAASGFTFSSYTMHWVRQAPGKGLEWVAAISYDGNNKYYADSVKGRFTISRDNSKNTLYLQMNSLRAEDTAVYYCARSILYGGGMDVWGQGTTVTVSS
VL: DIQLTQSPSSLSASVGDRVTITCRASQGISSYLAWYQQKPGQAPKLLIYAASTLQSGVPSRFSGSGSGTDFTLTISSLQPEDFATYYCQQLNSYPLTFGGGTKVEIK
- binding result [1]: binds

B4: monoclonal antibody 4-20 (antibody, V domains shown)
VH: QVQLLQSGAEVKKPGASVKVSCKASGYSFTSYYMHWVRQAPGQGLEWMGIINPSGGGTTYAQKFQGRVTMTRDTSTSTVYMELSSLRSEDTAVYYCARPGGGSYQEFDYWGQGTLVTVSS
VL: DIQMTQSPSSLSASVGDRVTITCRASQSISSYLNWYQQKPGKAPKLLISAASSLQSGVPSRFSGSGSGTDFTLTISSLQPEDFATYYCQQSYNTLQVTFGGGTKVEIK
- binding result [1]: binds

B5: monoclonal antibody 2-7 (antibody, V domains shown)
VH: QITLKESGPTLVKPTQTLTLTCTFSGFSLSTSGVGVGWIRQPPGKALEWLALIYWDDDKRYSPSLKSRLTITKDTSKNQVVLTMTNMDPVDTATYYCAHHKIERIFDYWGQGTLVTVSS
VL: QSALAQPASVSGSPGQSITISCTGTSSDVGAYNYVSWYQQHPGKAPKLMIYDVSKRPSGVSNRFSGSKSGNTASLTISGLQAEDEADYYCSSYTTSSTVFGGGTKLTVL
- binding result [1]: binds
